What all share (experiment): cell-based or functional assay
For test [1], the target named is ACM335-GFP hybrid protein (from plasmid pCm-ACM335-GFP) (Bordetella pertussis).
The target in test [2] is AC (wild-type, from plasmid pCm-AC, no fused moiety) (Bordetella pertussis) (UniProt J7QLC0).
The target in test [3] is ACM335-FKBP hybrid protein (from plasmid pCm-ACM335-FKBP) (Bordetella pertussis) (UniProt P62942).
Test [4] concerns the target AC-GFP hybrid protein (wild-type AC fused at its C-terminus to GFP, from plasmid pCm-AC-GFP) (Bordetella pertussis) (UniProt J7QLC0).
Test [5] deals with ACM335 (from plasmid pCm-ACM335, no fused moiety) (Bordetella pertussis) (UniProt J7QLC0).
Test [6] has as its target ACM247-GFP hybrid protein (from plasmid pCm-ACM247-GFP) (Bordetella pertussis) (UniProt J7QLC0).

For “CaMVU8 (VU-8 calmodulin, from plasmid pCaMVU8) (from UniProt P0DP23 2-149)”, the β-galactosidase (relative units) in test [1] was determined as 6; in test [2], 6; in test [3] it was 6; in test [4], 5; in test [5], 7.

Take “CaM (from plasmid pTr-CaM, not fused to a moiety of interest) (from UniProt P0DP23 2-149)”: the results for the β gal; CaM from pTr-CaM in test [1], in test [4] and in test [6] were 80 Rel. Units, 106 Rel. Units and 1 Rel. Units, respectively. In addition, the cAMP; CaM from pTr-CaM (nmol/mg dry weigth) in test [4] is greater than 250; in test [6], less than 0.1.
